The supplement of paper PMC9170038

System: MS2 coat protein
Assay: apparent KD of MS2 coat protein; designed switch direction (-1 OFF switch, 1 ON switch): -1; higher = weaker reporter binding
Summary of the method: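 Designed RNA switches were transcribed on Illumina chips by stalled E. coli RNA polymerase and titrated with SNAP-549-labelled MS2 coat protein from 0.7 or 1.5 nM, doubling to 3 µM. Step length ran from 0.8–1.5 h at the lowest concentration to 10–20 min at the highest. The apparent KD is the median over clusters for each design, from curve-fitted normalised cluster fluorescence.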

[1] = Eterna round: R95, input ligand: FMN 200 uM
[2] = Eterna round: R95, input ligand: microRNA oligo, concentration not stated
[3] = Eterna round: R95, input ligand: none
[4] = input ligand: microRNA oligo, concentration not stated

## AGUUGGCGAGGAUAUACAUGAGGAUCACCCAUGUGAGAGAUACGAGUGAGGUCGAUUAGUAGAAGGCGCUGACA [Mat X3R4 m14] (Eterna round: R97, puzzle: Exclusion 3)
Input ligand: FMN 200 uM
  apparent KD of MS2 coat protein: 0.984 µM
Input ligand: none
  apparent KD of MS2 coat protein: 0.161 µM

## GAUGCUUCGGCAUCUACAAGCUUUUUGCUCGUCUUAUUAACAUGAGGAUCACCCAUGUCAAAGAGACCUCAUGUAUU [Sensor v3 - turn-off variant 2 - 4] (puzzle: Sensor v3, turn-off variant 2)
[1]
  apparent KD of MS2 coat protein: 0.314 µM
[2]
  apparent KD of MS2 coat protein: 0.0189 µM
[3]
  apparent KD of MS2 coat protein: 0.381 µM

## CAGUACUGAGGAUAUACAUGAGGAUCACCCAUGUGUUCCAGCUAGGAUACUAGCAAAAGUAGAAGGCAGUACUG [salish99_ex3_r3_095x] (Eterna round: R96, puzzle: Exclusion 3)
[4]
  apparent KD of MS2 coat protein: 0.0209 µM

## CCCUCACAUGAGGAUCACCCAUGUCAGGAUAUCUCACAUCGGCCUUAGGCCAAUGUCAAGAGAAGGGACGUAUC [Usanvequin] (puzzle: Exclusion 1)
[2]
  apparent KD of MS2 coat protein: 0.0217 µM

## UUGCUUUCUUAGUACUCUAUAAGUUUUUUGUUCGUUUUAACAUGAGGAUCACCCAUGUCUAGUGGAUCUGAUCGGGU [JL ViennaUCT Isreen mod 7] (puzzle: Sensor v3, turn-off variant 2)
[1]
  apparent KD of MS2 coat protein: 0.15 µM
[2]
  apparent KD of MS2 coat protein: 0.303 µM
[3]
  apparent KD of MS2 coat protein: 0.163 µM

## GAAAAGGUAGAGGAUAUUUCAGAUCAAAGCUGCAAAGAAGGCUGCACAUGAGGAUCACCCAUGUGGUCAACAAA [Mod of Quesina 13 - Jieux - Exclusion 6] (Eterna round: R97, puzzle: Exclusion 6)
Input ligand: FMN 200 uM
  apparent KD of MS2 coat protein: 0.0661 µM
Input ligand: none
  apparent KD of MS2 coat protein: 0.0211 µM

## GUCGCUAGAGGAUAUACAAUGGUAUAUGAUCCUAGUGACAUACAUGAGGAUCACCCAUGUAGAAGGCUAGUAAU [Exclusion 2 - 7] (puzzle: Exclusion 2)
[2]
  apparent KD of MS2 coat protein: 0.0248 µM

## UCCGUGUGAGGAUAUGCGAAUGACGAGUUACCUUGUCGCAAGCAGAAGGUACAUGAGGAUCACCCAUGUCCUAU [Eternabot (L1) Solution 61] (Eterna round: R97, puzzle: Exclusion 4)
Input ligand: FMN 200 uM
  apparent KD of MS2 coat protein: 0.0278 µM
Input ligand: none
  apparent KD of MS2 coat protein: 0.0204 µM

## UUUUAACAUGAGGAUCACCCAUGUGAGGAUAUCGAAAUUUAUAUUAAUAUUUAUUAUUCGAGAAGGCACAUUUU [JMF 61] (puzzle: Exclusion 1)
[2]
  apparent KD of MS2 coat protein: 0.119 µM

## UACAUGAGGAUCACCCAUGUUUUGUCGUGUAUGGUAUUUAUCUAGGAUAUCAAGUUAUUUAUUUAUGAGAAGGAGAAUAUUAAU [JMF's solution 10] (Eterna round: R96, puzzle: Exclusion NG 3)
Input ligand: FMN 200 uM
  apparent KD of MS2 coat protein: 0.04 µM
[4]
  apparent KD of MS2 coat protein: 0.0307 µM
Input ligand: none
  apparent KD of MS2 coat protein: 0.0373 µM

## GUCUCGUGAGGAUAUCAUGAUUGACUUAAUUUAUUUUAGCGUGAGAAGGCACAUGAGGAUCACCCAUGUGAUUC [Ex4 - 3 - 5] (puzzle: Exclusion 4)
[2]
  apparent KD of MS2 coat protein: 0.0171 µM

## GUGUGAAGUUAGGAUAUGAUCGGACAAGAGCCUUCAGAAGGGACCACAUGAGGAUCACCCAUGUUGUCGGUGGC [Eternabot (L1) Solution 41] (Eterna round: R97, puzzle: Exclusion 6)
Input ligand: FMN 200 uM
  apparent KD of MS2 coat protein: 0.0205 µM
Input ligand: none
  apparent KD of MS2 coat protein: 0.0186 µM

## AUAUACGGAGGAUAUACUUGAGGAUCACCCAAGUGGAGUCCCGUUUGGGCGGUAAAUAGUAGAAGGCCGUCCCA [jl-ex3-4.44 ViennaUCT mod] (Eterna round: R97, puzzle: Exclusion 3)
Input ligand: FMN 200 uM
  apparent KD of MS2 coat protein: 0.0168 µM
Input ligand: none
  apparent KD of MS2 coat protein: 0.0123 µM

## UCCGAAGCAGGAUAUACAUGAGGAUCACCCAUGUGCUUGCAUGGCGUGGGAAGUCAUAGUAGAAGGGCUACGCC [jl-ex3-4.71 ViennaUCT mod] (Eterna round: R97, puzzle: Exclusion 3)
Input ligand: FMN 200 uM
  apparent KD of MS2 coat protein: 0.0531 µM
Input ligand: none
  apparent KD of MS2 coat protein: 0.0337 µM

## GAAAAGGUAGGAUAUACGAAAAAUAAGGGUAGAAAAAAAACACAUGAGGAUCACCCAUGUAGAAGGACCAAAAG [salish99_ex2_r3_082] (puzzle: Exclusion 2)
[1]
  apparent KD of MS2 coat protein: 0.0657 µM
[2]
  apparent KD of MS2 coat protein: 0.0278 µM
[3]
  apparent KD of MS2 coat protein: 0.033 µM

## CGUCGAAAUGUAGGAUAUCUGCACGUGUAGUGCAGAGAAGGACAUGAGGAUCACCCAUGUAGAUCACGACGAAUUAAUUUAAUU [ENG1/5-C3] (Eterna round: R96, puzzle: Exclusion NG 1)
Input ligand: FMN 200 uM
  apparent KD of MS2 coat protein: 0.468 µM
[4]
  apparent KD of MS2 coat protein: 0.0504 µM
Input ligand: none
  apparent KD of MS2 coat protein: 0.0569 µM

## ACUAGAUGAGGAUAUGCAUGUUUUCGUGUUCUUCUAGAUUAACAUGAGGAUCACCCAUGUAGAAGGCGUCAAUU [Exclusion 2 - 28] (puzzle: Exclusion 2)
[2]
  apparent KD of MS2 coat protein: 0.048 µM

## UAAUUCGUAGGAUAUACAAAGGGAGAAUGAUUGCGGUCCUGACAUGAGGAUCACCCAUGUAGAAGGAUGAGGGU [Eternabot (L1) Solution 41] (Eterna round: R97, puzzle: Exclusion 2)
Input ligand: FMN 200 uM
  apparent KD of MS2 coat protein: 0.0919 µM
Input ligand: none
  apparent KD of MS2 coat protein: 0.0886 µM

## UAUAGGCGAGGAUAUACUAACAAACGGAUCGCCAAACAAGAACUUGAGGAUCACCCAAGUAGAAGGCGCAAUUG [Gezaonsoma] (Eterna round: R97, puzzle: Exclusion 2)
Input ligand: FMN 200 uM
  apparent KD of MS2 coat protein: 0.0158 µM
Input ligand: none
  apparent KD of MS2 coat protein: 0.0241 µM

## UAGUACCAAGGAUAUGCGUGACCAUGGCCUCCGUGGUAGAGACAUGAGGAUCACCCAUGUAGAAGGUGGAUAAC [Eternabot (L1) Solution 74] (Eterna round: R97, puzzle: Exclusion 2)
Input ligand: FMN 200 uM
  apparent KD of MS2 coat protein: 0.401 µM
Input ligand: none
  apparent KD of MS2 coat protein: 0.335 µM

## UGAGCUUGAGGAUAUACAAUGAGCUUGAGAAAUCGAGUUCGACAUGAGGAUCACCCAUGUAGAAGGCGAGUUCG [-37.5, -35.6 kcal, A 28% 1 and 1] (Eterna round: R97, puzzle: Exclusion 2)
Input ligand: FMN 200 uM
  apparent KD of MS2 coat protein: 0.0281 µM
Input ligand: none
  apparent KD of MS2 coat protein: 0.0177 µM

## UAAUAAUAGUGAGGAUAUAGUUAUUAUAAUAUACUAGAAGGUACACAUGAGGAUCACCCAUGUUUUAUAAUUUGUAAUUUAAAU [4th something] (Eterna round: R96, puzzle: Exclusion NG 1)
[4]
  apparent KD of MS2 coat protein: 0.0184 µM

## AGAUCACAUGAGGAUCACCCAUGUGAGGAUAUAGACUGAAGAGCUUCGGCUCUUCAGUCUAGAAGGCACUAUGA [EX1 #45] (Eterna round: R97, puzzle: Exclusion 1)
Input ligand: FMN 200 uM
  apparent KD of MS2 coat protein: 0.0289 µM
Input ligand: none
  apparent KD of MS2 coat protein: 0.0259 µM

## AAUACAAGCUAUUGAUCCCACAUGAGGAUCACCCAUGUAGAUGGCGGUGACACCUCCAUUACGAUAGCUCGUCUUAU [Sensor-V1 #57] (Eterna round: R97, puzzle: Sensor, turn-off variant 1)
Input ligand: FMN 200 uM
  apparent KD of MS2 coat protein: 0.321 µM
Input ligand: none
  apparent KD of MS2 coat protein: 0.347 µM

## GCUGGAAAAGGAUAUACAUAACGUGCGUCAGCACGAGACCUACAUGAGGAUCACCCAUGUAGAAGGUUUCCAGC [EX2 #75] (Eterna round: R97, puzzle: Exclusion 2)
Input ligand: FMN 200 uM
  apparent KD of MS2 coat protein: 0.0228 µM
Input ligand: none
  apparent KD of MS2 coat protein: 0.0168 µM

## UCUAGCUUUUUGCGUCAAGCAUUGAAGUCUGUGAUCGUUACAUGAGGAUCACCCAUGUAUGUUUUAUGUCGUCUUGU [JR_SV3TOV2_Sub099] (puzzle: Sensor v3, turn-off variant 2)
[1]
  apparent KD of MS2 coat protein: 0.0372 µM
[2]
  apparent KD of MS2 coat protein: 0.0331 µM
[3]
  apparent KD of MS2 coat protein: 0.0439 µM

## UAUAUGUCAGGAUAUCGAUUAGAACAGAAUUUAACAAUAGUCGAGAAGGGACAUGAGGAUCACCCAUGUUCAAC [JR_Ex4_Sub021] (Eterna round: R97, puzzle: Exclusion 4)
Input ligand: FMN 200 uM
  apparent KD of MS2 coat protein: 0.0417 µM
Input ligand: none
  apparent KD of MS2 coat protein: 0.0205 µM

## AAAAUACAUGAGGAUCACCCAUGUAAGGAUAUACGCCUAGUACCGAUGGUACUACAAAGUAGAAGGUACAUGGC [Arma] (puzzle: Exclusion 1)
[1]
  apparent KD of MS2 coat protein: 0.0171 µM
[2]
  apparent KD of MS2 coat protein: 0.0123 µM
[3]
  apparent KD of MS2 coat protein: 0.0141 µM

## UAUGGUUAAGUCAGGAUAUACUCAUAGAAGUCUGUGUAGAAGGGACAUGAGGAUCACCCAUGUAUGGUAGUGUU [Ex4 #47] (Eterna round: R97, puzzle: Brourd's mod of Exclusion 4)
Input ligand: FMN 200 uM
  apparent KD of MS2 coat protein: 0.151 µM
Input ligand: none
  apparent KD of MS2 coat protein: 0.159 µM

## AUUAUAUAGAAAGGAUAUAGAAUAUUAUUUUAACAUGAGGAUCACCCAUGUAACCUUAUGUGUAGCUAGAAGGUUCAUUUAUUA [Title] (Eterna round: R96, puzzle: Exclusion NG 2)
[4]
  apparent KD of MS2 coat protein: 0.0525 µM

## GUACUGAAGCAUAGCUUUAGUCGUACAUGAGGAUCACCCAUGUAGGAUAUGGUAGGCAUAGCUUACUAGAAGGAUAGAGUGAUC [Mat - Exclusion NG 3 - Mod of JL - D72] (Eterna round: R96, puzzle: Exclusion NG 3)
Input ligand: FMN 200 uM
  apparent KD of MS2 coat protein: 0.44 µM
[4]
  apparent KD of MS2 coat protein: 0.0716 µM
Input ligand: none
  apparent KD of MS2 coat protein: 0.137 µM

## GCUUCGGCAGGAUAUACAAGCUUCGGCUGAAAAGUUGAAGUACAUGAGGAUCACCCAUGUAGAAGGGUUGAAGU [-25.7, -24.2 kcal, A 32% 3 bis, 3 bis] (Eterna round: R97, puzzle: Exclusion 2)
Input ligand: FMN 200 uM
  apparent KD of MS2 coat protein: 0.0456 µM
Input ligand: none
  apparent KD of MS2 coat protein: 0.0601 µM

## CUUUUGUGAGGAUAUUAGUAGUAAAUGAAUAAAAUUAUUACUAAGAAGGCACAUGAGGAUCACCCAUGUUCCUC [Mat - Exclusion 4 - Eli Mod - D1] (Eterna round: R97, puzzle: Exclusion 4)
Input ligand: FMN 200 uM
  apparent KD of MS2 coat protein: 0.393 µM
Input ligand: none
  apparent KD of MS2 coat protein: 0.0544 µM

## CCUUGUCUGAAGGAUAUCCGCCGAAAAGGCAAGGGAGAAGGUUAGACAUGAGGAUCACCCAUGUGCCGGUGUAA [EX6 A.3] (Eterna round: R97, puzzle: Exclusion 6)
Input ligand: FMN 200 uM
  apparent KD of MS2 coat protein: 0.0442 µM
Input ligand: none
  apparent KD of MS2 coat protein: 0.0255 µM

## CAUUAUUAUCGAGGAUAUCCUAUUGAAAUUCUAGGAGAAGGCGGACUCAACAUGAGGAUCACCCAUGUGGGACGGAUGCUAGGG [Ex NG1 #29] (Eterna round: R96, puzzle: Exclusion NG 1)
Input ligand: FMN 200 uM
  apparent KD of MS2 coat protein: 0.0159 µM
[4]
  apparent KD of MS2 coat protein: 0.0196 µM
Input ligand: none
  apparent KD of MS2 coat protein: 0.0178 µM
